Source: US8329882B2, “Genetic control of mammalian cells with synthetic RNA regulatory systems” (California Institute of Technology, priority 2009, dated 2012)
Entries after “also recorded” stand apart in the source; their conditions may differ.

Key:
[1] = test system: JAK-STAT pathway; assay: Western blot analysis of phosphorylated STAT5 levels; type: cell-based, mouse; details: CffLuc cell line lacking the ribozyme switch system; 500 μM theophylline
Experimental: Additional assays on a clonal cell line harboring three copies of L2bulge9 (clone 1264-48) were performed to verify the mechanism of growth regulation and examine the dynamic behavior of the regulatory system to variations in theophylline availability. Cell cultures were grown for one week in the presence of 500 μM theophylline and continued for a second week in the absence of theophylline. Theophylline was reintroduced for another four days at the end of the study. […] CD19 levels returned to basal levels within 48 hours of theophylline removal from the culture. The theophylline-responsive increase in CD19 expression was repeated upon reintroduction of theophylline to culture media. IL-15 expression patterns were verified at the transcript level through quantitative RT-PCR (Example 21, FIG. 8). […]
Lysate samples were thawed on ice and a standard Bradford assay using Protein Assay Dye (Bio-Rad) was performed with a BSA standard to determine protein concentrations. […] Membranes stained for […] and p-STAT5 were washed 4 times with 100 ml TTBS and once with 100 ml TBS before fluorescent images were acquired and quantified with the Odyssey Infrared Imaging System (Li-Cor). Integrated band intensity was calculated with the Odyssey system using blank gel areas surrounding each band for background subtraction. […]

[2] = test system: CTLL-2 cells; details: 100 U/ml IL-2 every 48 hours; cell count every 24 hours
Experimental: Cells were cultured in media containing the indicated concentration of (a) theophylline and (b) tetracycline.
In the experiment shown in FIG. 19, 100 U/ml of IL-2 was fed to all cultures every 48 hours, and cell count was obtained every 24 hours by flow cytometry.

[3] = test system: CTLL-2 cells; assay: In vitro growth assay for stable CTLL-2 cell lines; type: cell-based, mouse; details: 500 μM theophylline, without exogenous IL-2
Experimental: Growth behavior of individual clones was characterized by culturing under various theophylline concentrations. […] In the experiment shown in FIG. 7, the cell lines were cultured at various theophylline concentrations, and cell growth was monitored by counting viable cells. Clones indicated as 1261-xx stably expressed cd19-tk-il15-L2bulge9(1x). Clone 1264-xx stably expressed cd19-tk-il15-L2bulge9(3×). Growth behaviors differ from clone to clone, as would be expected from non-site-specific integration of the transgene into the host chromosomes. Theophylline-responsive increase in cell growth is evident in fifteen of the sixteen tested clones, and the growth elevation is statistically significant for the sample set (P=0.0150, 0.0011, 0.0013 for 100 μM, 250 μM, and 400 μM, respectively, by Whitney-Mann U test).
CffLuc-pIL15 clones were cultured under regular conditions (RPMI 1640 media supplemented with 100 U/ml IL-2 every 48 hours, 0.2 mg/ml zeocin, no theophylline), washed twice with HBSS, and split into 5 identical aliquots in 6-well plates at approximately 0.01×10^6 cells/ml (4 ml/well). […] Cell density was calculated by dividing the number of detected live cells by the volume analyzed on the flow cytometer. […]

[4] = test system: T-cell proliferation; assay: In vivo T-cell proliferation study with biophotonic imaging of luciferase signal flux; design: species or system NOD/scid-IL2(ko) mice
Experimental: To verify in vivo functionality of the T-cell proliferation regulatory system, we examined several clonal cell lines for theophylline-dependent growth in mice over time. Select clones were encased in a hydrogel matrix that contained either 0 μM or 500 μM theophylline and injected into the flanks of NOD/SCID-γc^−/− mice. […] Flux measurements over a 9-day period indicate an average of 40% increase in the growth rate of clone 1264-48 in the presence of […] (n1=4, n2=6, P=0.038 by Mann-Whitney U test).
Cells were harvested by centrifugation at 1200 rpm at 4° C. for 10 min, washed twice with PBS, resuspended in PBS at a concentration of 2×10^6 cells/ml, and split into two 50 μl aliquots. […] In vivo growth of the injected cells was monitored by biophotonic imaging. […]
Animals received intraperitoneal (i.p.) injections of 4.29 mg per mouse of freshly prepared luciferin substrate (Caliper Life Sciences; Hopkinton, Mass.) suspended in 150 μl of PBS. […] Luciferase activity was analyzed through Living Image Software 3.1 from Xenogen to quantify tumor region flux (photons per second).
Statistical analysis was performed on growth rate data using the Mann-Whitney U test to calculate two-tailed P values. The doubling time of injected cells was calculated based on the total luciferase signal flux data collected over the course of each in vivo study. […]

[5] = test system: CTLL-2 cells; assay: Transient transfection in CTLL-2 cells, viability and fluorescence by flow cytometry; type: cell-based, mouse
[6] = test system: primary human TCM cells; assay: TCM cell apoptosis time-course study (annexin V / SYTOX AAD / CD19 staining); type: cell-based; details: 500 μM theophylline, five days, compared to the inactive ribozyme control
Experimental: (§1) Since short production timeline and streamlined processing may be important in clinical applications, characterization studies of TCM cells were performed on bulk transduced, unsorted populations to examine the robustness of the regulatory system in the scenario in which no population refinement was performed. Transduced cells were cultured in the presence and absence of 500 μM theophylline for five days, with daily monitoring of CD19 levels and cell viability by staining with CD19 antibody, annexin V, and SYTOX AAD dead cell stain. […] TCM cells stably expressing the cd19-t2a-il15-L2bulge9(3×) construct were cultured in the presence and absence of 500 μM theophylline. […] Values reported represent mean±s.d. from triplicate samples.
On day 12 post stimulation, each cell line was washed twice with HBSS and used to seed six 25-ml cultures at 0.45×10^6 cells/ml. […] Fluorescence data were obtained using a Quanta Cell Lab Flow Cytometer with both a 488-nm laser and an UV arc lamp. Pacific Blue, PE, and SYTOX AAD were detected through 465/30-nm band pass, 575/30-nm band pass, and 610-nm long pass filters, respectively, Only SYTOX AAD-cells were included in data analyses. The population of live CD19+ cells was determined by gating for annexin V−/PE+ cells and the population of apoptotic CD19+ cells was determined by gating for annexin V+/PE+ cells.

[7] = test system: primary human TCM cells; assay: TCM cell CD19 expression time-course study; type: cell-based; details: 500 μM theophylline, five days; compared to the inactive ribozyme control; three copies of switch
Experimental: as §1
On day 12 post stimulation, each cell line was used to seed four 25-ml cultures at 0.2×10^6 cells/ml. 500 μM theophylline was added to 2 flasks of each cell line, and no IL-2 or IL-15 was fed to any flask. Two aliquots from each culture were sampled every 24 hours for staining with PE-conjugated CD19 antibody (Beckman Coulter; Fullerton, Calif.). Fluorescence data were obtained with a Quanta Cell Lab Flow Cytometer using a 488-nm laser and a 575/30-nm band-pass filter.

## Cn1c(=O)c2[nH]cnc2n(C)c1=O [theophylline]
[1]
  nonspecific activation of JAK-STAT pathway: did not nonspecifically activate the JAK-STAT pathway
[2]
  toxicity to CTLL-2 cells: some toxicity

## CN(C)[C@@H]1C(O)=C(C(N)=O)C(=O)[C@@]2(O)C(O)=C3C(=O)c4c(O)cccc4[C@@](C)(O)[C@H]3C[C@@H]12 [tetracycline]
[2]
  toxicity to CTLL-2 cells: some toxicity

B1: inactive ribozyme: inactive, scrambled hammerhead ribozyme lacking an aptamer, SEQ ID NO: 30; cells expressing it serve as positive control (nucleic acid)
chain: CTCGAGGCGATCGCAAACAAACAAAGCTGTCACCGGATGTGCTTTCCGGTACGTGAGGTCCGTGAGGACAGAACAGCAAAAAGAAAAATAAAAATTTTTTTTTTAATTAATCTTGGGCCC
[3]
  growth rate in the presence of theophylline: decreased growth rate
[4]; 500 μM theophylline vs none, 9-day period
  change in in vivo growth rate in response to theophylline addition: did not show statistically significant changes; also recorded: no statistically significant difference
[4]; regardless of theophylline availability (0 or 500 μM), 14-day study
  in vivo T-cell proliferation: Uncontrolled T-cell proliferation

B2: L2bulge18tc: tetracycline-responsive ribozyme switch, SEQ ID NO: 29 (nucleic acid)
chain: CTCGAGGCGATCGCAAACAAACAAAGCTGTCACCGGATGTGCTTTCCGGTCTGATGAGTCCGTTGTCCAAAACATACCAGATTTCGATCTGGAGAGGTGAAGAATTCGACCACCTGGACGAGGACGGAGGACGAAACAGCAAAAAGAAAAATAAAAATTAATTAATCTTGGGCCC
modifications: L2bulge18tc
[5]; tetracycline input, single- and multiple-copy switch systems
  switch activity (fluorescence): tetracycline-responsive ON switch activity

B3: L2bulge9: theophylline-responsive ribozyme switch, SEQ ID NO: 28 (nucleic acid)
chain: CTCGAGGCGATCGCAAACAAACAAAGCTGTCACCGGATGTGCTTTCCGGTCTGATGAGTCCGTTGTCCAATACCAGCATCGTCTTGATGCCCTTGGCAGTGGATGGGGACGGAGGACGAAACAGCAAAAAGAAAAATAAAAATTTTTTTTTTAATTAATCTTGGGCCC
modifications: L2bulge9
[5]; cd19-tk-t2a-il15 transgene, theophylline
  switch control over cell viability and proliferation: ON switch control over cell viability and proliferation
[5]; three and four copies of switch, egfp-t2a-il2, viability comparable to No IL-2 Control and sTRSV Ribozyme
  basal knockdown (viability): Stringent knockdown
[6]; apoptotic CD19+
  reduction in the apoptotic cell population: up to 54%
[6]; live CD19+
  increase in the live cell population: up to 24%
[7]
  increase in CD19 expression levels: up to 15%
